# Biological target: RVFV Gn, WT sequence, transiently expressed in Expi293F cells (Rift Valley fever virus, GenBank …)
# Test: flow cytometry on cells
# Details: one partner purified
binder,measurement,value
"RVFV-268 IgG1 (antibody, V domains shown, copies: 2 + 2) VH: QVHLVESGGGVVQPGKSLRLSCAASGFIFNHFGIHWVRQSPGKGLEWVAVIWYDGSKKYFADSVKGRFSISRDNSQNTVYLQMNSLRTEDTAVYYCARERWSGHSYLDYWGHGALVTVSS VL: SNVLTQPPSVSVAPGQTARISCGGNNLESKYVHWYQQKPGQAPVLVVYEDSGRPSGIPERFSGSNSGGTATLTISRVEAGDEADYYCQEWDTSSDYPVFGGGTKVTVL",binding result,binds
